Measured values as given in patent US20260231954A1, “PESTICIDAL ENZYMES FOR USE ON NEMATODES, INSECTS, AND MOLLUSKS” (priority 2023, published 2026).

Columns and labels:
Format in all cases: in vivo
corn [1] = assay: Field trial: PytH Esterase corn seed treatment, yield; conditions: 0.5 fl oz/unit on hybrid corn seed; 10 sites
Description: 0.5 fl oz/unit of PythH Esterase from recombinant Bacillus subtilis fermentation (SEQ ID NO:255) was coated onto Hybrid corn seeds treated with Fludioxinil fungicide, ipconazole fungicide, peridium 1006 polymer, and Sensient Red (colorant). A control treatment without esterase enzyme was also created. The seed treated with esterase and control seed was planted in replicated trials distributed across 10 replicated plots with 4 replicates of 100 ft2 each at each site.

soybean [2] = assay: Field trial: Geobacillus stearothermophilus esterase soybean seed treatment, yield; conditions: 0.5 fl oz/unit on soybean seed; 6 sites
Description: 0.5 fl oz/unit of Esterase (carboxylesterase) from Geobacillus/Bacillus stearothermophilus (SEQ ID NO:252) was coated onto soybean seeds treated with Evergol Energy (prothioconazole, metalaxyl, and penflufen fungicides) at 1 fl oz/cwt, Alias 4F (imidacloprid, insecticide) at 1.25 fl oz/unit, Sensient Red (colorant) at 0.5 fl oz/cwt, and Seedwork 4037L polymer at 1.5 fl oz/cwt. A control treatment without esterase enzyme was also created. The seed treated with esterase and control seed was planted in replicated trials distributed across 6 replicated plots with 4 replicates of 60 ft2 each at each site.

soybean [3] = assay: Field trial: Feruloyl Esterase soybean seed treatment, yield; conditions: 1 fl oz/unit on soybean seed; 5 sites
Description: 1 fl oz/unit of Feruloyl Esterase (SEQ ID NO:91) was coated onto soybean seeds treated with Fludioxinil fungicide, metalaxyl fungicide, thiamethoxam […], Seedwork 1037L polymer, and Sensient Red (colorant). A control treatment without esterase enzyme was also created. The seed treated with esterase and control seed was planted in replicated trials distributed across 5 replicated plots with 4 replicates of 30 ft2 each at each site.

[4] = tested on: Fall armyworm (Spodoptera frugiperda); assay: Diet-surface overlay (DSO) bioassay on Fall armyworm; conditions: number of individuals, n = 32, 7 days
Method: Diet-surface overlay bioassays are conducted with artificial diet mixes without antibiotics in 1.5 cm^2 cell bioassay trays(s). Artificial diets are commercially available from Southland Products Inc. Diets were prepared by dispersing 0.5 mL of molten diet to each 1.5 cm^2 cell. After solidification, 0.1 mL enzyme treatments were dispersed on top of diet in each cell and the tray was gently rocked in an orbital shaker to spread the liquid uniformly over the diet surface. Trays were placed under clean airflow until the surface of each cell was uniformly dried. One or two 16-cell sections were used per treatment (the number in larvae treated was 16 or 32).
One healthy first instar larva was placed into each treatment cell, each 16-cell section was covered with a re-sealable lid and incubated at 27° C. and light-dark period of 16:8 hrs. After 7 days, and according to the species, the number of individuals in the following developmental categories was recorded.
Negative/untreated controls were treated with filtered water and positive controls were treated with lethal doses of Bacillus thuringiensis subsp. Kurstaki (Btk) spores at 1000 ppm.

[5] = tested on: Garden snails (Cornu aspersum); assay: Antifeedant and molluscicide bioassay on garden snails (diet consumption, survival, weight gain)
Method: Two-week old garden snails (Cornu aspersum) and full-size black gloss snails (Zonitoides nitidus) were maintained in a semi-darkened tank at 68-70° F. at high humidity, provided with a wet sponge in a petri dish. Snails were transferred to fresh tank every 2-3 days, and they were feed ad libitum with cucumber slices supplemented with calcium carbonate tablets. Individuals were reared in the laboratory for at least a week to fully acclimate to laboratory conditions prior to testing. The individuals ranged between 3 weeks to 2 months old at the time of bioassay.
Filter-sterilized recombinant enzymes including proteases and lipases were prepared as indicated in Example 25. Corresponding controls (e.g., buffer, fermentation of non-recombinant strain, water) were be prepared accordingly. Enzymes were dried by mixing them with Polyvinylpyrrolidone K30 (Thermo Sci Chem, Cat #227545000) at a ratio of 60 mg PVP per mL of enzymes, dispersed on a petri dish and allowed to dry in a bio-safety hood for 24-48 hours.
The treatments were prepared by mixing 0.4 g of dry enzyme and 1 gram of artificial diet mix. The artificial diet mix consisted of flour supplemented with 30 mg sucrose per gram of flour. […]
12 snails were randomly assigned to each treatment, labeled with permanent marker on the top of the shell for identification, and their weight (mg) was recorded before treatment. […] At the time of treatment replacement, treatment consumption, weight, and mortality were recorded.
Acid protease, alkaline protease, aminopeptidase, neutral protease, and keratinase, were prepared as indicated above and their antifeedant and molluscicidal effects were tested. […] The units (U) of enzyme activity was determined as the amount of enzyme required to breakdown 1 μM of substrate per minute. […]
Lipases from Burkholderia cepacia, Pseudomonas fluorescens, porcine pancreas, type II (PPII) were prepared as described above and their antifeedant and molluscicidal effects were tested. […] The units (U) of enzyme activity was determined as the amount of enzyme required to breakdown 1 μM of substrate per minute. […]

corn [6] = assay: Greenhouse trial: Rhizopus oryzae Esterase corn seed treatment, plant height; conditions: 0.5 fl oz/unit seed treatment, 6049 V2 hybrid corn, plant height day 10, water control = 100%
Method: Rhizopus oryzae Esterase (carboxylesterase, SEQ ID NO:253) was coated onto 6049 V2 hybrid corn seeds. A water only control treatment without esterase enzyme was also created. The seed treated with esterase and control seed was planted in replicated greenhouse trials on promix soil with a fluctuating day/night temperature of 78° F./75° F., and 13 hours of light daily. Plant heights were measured on day 10 for each plant emerged from the soil.

B1: PytH esterase (SEQ ID NO:255): Sphingobium wenxiniae (PytH) Esterase from recombinant Bacillus subtilis fermentation (protein, listed as Sphingobium wenxiniae)
chain: MTVTDIILIHGALNRGACYDAVVPLLEARGYRVHAPDLTGHTPGDGGHLSVVDMEHYTRPVADILARAEGQSILLGHSLGGASISWLAQHHPDKVAGLIYLTAVLTAPGITPETFVLPGEPNRGTPHALDLIQPVDEGRGLQADFSRLERLREVFMGDYPGEGMPPAEQFIQTQSTVPFGTPNPMEGRALEIPRLYIEALDDVVIPIAVQRQMQKEFPGPVAVVSLPASHAPYYSMPERLAEAIADFADAPAEYRQTATKAGPDRPAGADGGRADRADLP
Corn [1]
  yield vs base seed treatment package (in words): increased the yield

B2: Geobacillus stearothermophilus esterase (SEQ ID NO:252): Esterase (carboxylesterase) from Geobacillus/Bacillus stearothermophilus (protein, listed as Bacillus stearothermophilus, listed as Geobacillus stearothermophilus)
chain: MKIVPPKPFFFEAGERAVLLLHGFTGNSADVRMLGRFLESKGYTCHAPIYKGHGVPPEELVHTGPDDWWQDVMNGYEFLKNKGYEKIAVAGLSLGGVFSLKLGYTVPIEGIVTMCAPMYIKSEETMYEGVLEYAREYKKREGKSEEQIEQEMEKFKQTPMKTLKALQELIADVRDHLDLIYAPTFVVQARHDEMINPDSANIIYNEIESPVKQIKWYEQSGHVITLDQEKDQLHEDIYAFLESLDW
Soybean [2]
  yield vs base seed treatment package (in words): increased the yield

B3: Feruloyl Esterase (SEQ ID NO:91): Beauveria bassiana Feruloyl Esterase A2 (protein, listed as Beauveria bassiana)
chain: MLSLLGFLGFAALAAAAPVRDQAFIPRTLVNRSIYDKLALYAGYTQLSNTGICARPSVPGVLYQFVESKDTDTQVSIWKVDAYKEFVIAIPGTSSARDNETNFDFALVPYQADNVRCPSCRVHKGYQAAWRSVMKQVQGNLTNLLGIHPDYTVTLTGHSLGGGLVSIAFPTLRNGPYNVTQAYTYGQPRAGNGAFANYVDGISGASDKEAGIFYRVTHANDLIPKLPPGIFGYKHSRTEYWESKPSMDNAASTYRCYGQEPADCNRNATGIDSKVHVTYAGMNVTCNKS
modifications: Feruloyl Esterase A2
Soybean [3]
  yield vs base seed treatment package (in words): increased the yield

B4: PpII Lipase: free lipase from porcine pancreas Type II (PpII) (protein, UniProt P00591 1-450, looked up)
Pancreatic triacylglycerol …: SEVCFPRLGCFSDDAPWAGIVQRPLKILPWSPKDVDTRFLLYTNQNQNNYQELVADPSTITNSNFRMDRKTRFIIHGFIDKGEEDWLSNICKNLFKVESVNCICVDWKGGSRTGYTQASQNIRIVGAEVAYFVEVLKSSLGYSPSNVHVIGHSLGSHAAGEAGRRTNGTIERITGLDPAEPCFQGTPELVRLDPSDAKFVDVIHTDAAPIIPNLGFGMSQTVGHLDFFPNGGKQMPGCQKNILSQIVDIDGIWEGTRDFVACNHLRSYKYYADSILNPDGFAGFPCDSYNVFTANKCFPCPSEGCPQMGHYADRFPGKTNGVSQVFYLNTGDASNFARWRYKVSVTLSGKKVTGHILVSLFGNEGNSRQYEIYKGTLQPDNTHSDEFDSDVEVGDLQKVKFIWYNNNVINPTLPRVGASKITVERNDGKVYDFCSQETVREEVLLTLNPC
[4]; Table 46, lipases
  Dead Larva: 0
[4]; Table 46
  Larva Stage I: 2
  Larva Stage II: 5
  Larva Stage III: 15
  Larva Stage IV: 10
[5]; lipases, garden snail, n = 12, 12 days, dose per treatment in U/gr diet
  Diet consumption: 0.82 gr
[5]; lipases, garden snail, number of n = 12, 12 days
  Dead Snails: 0
[5]; text to Table 62, lipases in artificial diet, n = 12, 12 days
  food consumption (in words): consistent reduction in food consumption

B5: Esterase from Rhizopus oryzae: Rhizopus oryzae Esterase (carboxylesterase, SEQ ID NO:253) (protein, listed as Rhizopus oryzae)
chain: SDGGKVVAATTAQIQEFTKYAGIAATAYCRSVVPGNKWDCVQCQKWVPDGKIITTFTSLLSDTNGYVLRSDKQKTIYLVFRGTNSFRSAITDIVFNFSDYKPVKGAKVHAGFLSSYEQVVNDYFPVVQEQLTANPTYKVIVTGHSLGGAQALLAGMDLYQREPRLSPKNLSIFTVGGPRVGNPTFAYYVESTGIPFQRTAHKRDIVPHVPPQSFGFLHPGVESWIKSGTSNVQICTSEIETKDCSNSIVPFTSILDHLSYFDINEGSCL
modifications: Rhizopus cf. oryzae
Corn [6]
  Height as % of Control: 103.7%
Corn [6]; listed as Rhizopus oryzae Esterase
  Height as % of Control: increase the growth rate of corn
